Results from patent US20210145944.

Key:
Tau-441 (P301L) = Tau-441 (P301L) (UniProt P10636)
Sequence of Tau-441 (P301L) (P10636 other isoform, or with tags, fused parts or gaps P301L): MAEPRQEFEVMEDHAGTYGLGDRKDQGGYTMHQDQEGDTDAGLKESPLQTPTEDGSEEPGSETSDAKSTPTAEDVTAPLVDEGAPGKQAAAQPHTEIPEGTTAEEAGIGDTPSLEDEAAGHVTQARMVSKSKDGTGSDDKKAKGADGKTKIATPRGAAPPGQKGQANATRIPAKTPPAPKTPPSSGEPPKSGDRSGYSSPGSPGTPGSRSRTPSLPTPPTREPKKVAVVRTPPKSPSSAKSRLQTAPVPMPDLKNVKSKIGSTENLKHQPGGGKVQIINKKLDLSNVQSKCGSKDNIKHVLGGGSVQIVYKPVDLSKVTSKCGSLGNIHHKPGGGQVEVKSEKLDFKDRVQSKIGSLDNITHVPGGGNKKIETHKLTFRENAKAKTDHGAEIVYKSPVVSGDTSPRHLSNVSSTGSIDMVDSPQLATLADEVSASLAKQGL

B1: cathepsin G (enzyme, UniProt P08311 21-244, looked up, species assumed)
Cathepsin G: IIGGRESRPHSRPYMAYLQIQSPAGQSRCGGFLVREDFVLTAAHCWGSNINVTLGAHNIQRRENTQQHITARRAIRHPQYNQRTIQNDIMLLQLSRRVRRNRNVNPVALPRAQEGLRPGTLCTVAGWGRVSMRRGTDTLREVQLRVQRDRQCLRIFGSYDPRRQICVGDRRERKAAFKGDSGGPLLCNNVAHGIVSYGKSSGVPPEVFTRVSSFLPWIRTTMRS
modifications: immobilized
For B1, the “casein digestion by resin-immobilized protease, fluorescence (RFU) at 5 and 60 min” value (Bodipy-labelled casein) was “bar at 5 min about 2.3x10^7 RFU, bar at 60 min about 5.3x10^7 RFU; highest of the three groups; no control bar drawn”, the “casein digestion, fluorescence (RFU) of Bodipy-labelled casein after 1 h against protease concentration in solution” value (Bodipy-labelled casein) was “near 0 up to about 0.1 ug/ml, rises to about 3.4x10^7 RFU; the last two points (about 50 and 100 ug/ml) are at the same height” and the “casein-digestion activity, immobilized protease, fluorescence” value (Bodipy-labelled casein) was “exhibited casein-digestion activity at 5 minute and 60 minute incubation times”. The “casein-digestion activity, protease in solution, fluorescence” value (Bodipy-labelled casein) was “exhibited casein-digestion activity having linear reaction kinetics up to approximately 6 µg/ml of each protease”, the “digestion on immobilized protease column, SDS-PAGE silver stain (FIG. 3A)” value (Tau-441 (P301L)) was “rapidly degraded” and the “loss of the Tau-441 (P301L) band on a silver-stained SDS-PAGE gel after incubation on the protease column” value (Tau-441 (P301L)) was “no band in the Cathepsin G column lanes at 2, 10 and 20 min; the No protease column lanes show a strong band of equal strength at 2, 10 and 20 min”.
